Legend:
[1] = target: T1, soluble TNF receptor 1 (sTNF-R1) (human, UniProt P19438 30-211); experiment: equilibrium KD; method not stated
T1 construct: extracellular domain
T1 sequence (looked up): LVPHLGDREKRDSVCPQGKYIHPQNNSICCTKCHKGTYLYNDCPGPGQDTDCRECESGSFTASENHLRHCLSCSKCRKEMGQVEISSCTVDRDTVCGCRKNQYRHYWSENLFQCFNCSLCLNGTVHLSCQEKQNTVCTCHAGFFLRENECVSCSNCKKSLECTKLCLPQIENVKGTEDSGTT

[2] = target: T2, soluble TNF receptor 2 (sTNF-R2) (human, UniProt P20333 23-257); experiment: equilibrium KD; method not stated
T2 construct: extracellular domain
T2 sequence (looked up): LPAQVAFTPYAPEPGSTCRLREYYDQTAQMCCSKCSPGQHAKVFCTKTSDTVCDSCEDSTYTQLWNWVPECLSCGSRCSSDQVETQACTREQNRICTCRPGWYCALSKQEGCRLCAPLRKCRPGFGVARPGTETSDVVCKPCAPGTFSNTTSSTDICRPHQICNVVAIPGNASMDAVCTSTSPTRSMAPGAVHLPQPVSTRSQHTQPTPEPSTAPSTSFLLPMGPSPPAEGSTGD

Kd [1]: 100 nM
Kd [2]: 12 nM
B1: SEQ11 modified single chain TNF (scTNF) (ligand)
chain: THHHHHHHHHHAGGAENLYFQGSASSSSRTPSDKPVAHVVANPQAEGQLQWVNRRANALLANGVELRDNQLVVPSEGLYLIYSQVLFKGQGCPSTHVLLTHTISRIAVSYQTKVNLLSAIKSPCQRETPEGAEAKPWYEPIYLGGVFQLEKGDRLSAEINRPDYLDFDDDGQVYFGIIALGGGSGGGSGGGSGGGSSSRTPSDKPVAHVVANPQAEGQLQWVNRRANALLANGVELRDNQLVVPSEGLYLIYSQVLFKGQGCPSTHVLLTHTISRIAVSYQTKVNLLSAIKSPCQRETPEGAEAKPWYEPIYLGGVFQLEKGDRLSAEINRPDYLDFDDDGQVYFGIIALGGGSGGGSGGGSGGGSSSRTPSDKPVAHVVANPQAEGQLQWVNRRANALLANGVELRDNQLVVPSEGLYLIYSQVLFKGQGCPSTHVLLTHTISRIAVSYQTKVNLLSAIKSPCQRETPEGAEAKPWYEPIYLGGVFQLEKGDRLSAEINRPDYLDFDDDGQVYFGIIAL
notes: also called TNF variant trimer
